Data: publication PMC2572730, “Structural Basis for the Recognition of Histone H4 by the Histone-Chaperone RbAp46” (Structure(London, England:1993), 2008)

Molecular target: histone H3 (Xenopus laevis, recombinant full length) (Xenopus laevis) (UniProt P84233)
Test: cross-linking; BS3 crosslinker in 1.1 M NaCl, 20 mM HEPES (pH 7.5), 10 mM DTT; ~10 uM RbAp46, H3/H4 or RbAp46/H3/H4; room temperature, 30 min; NuPAGE, Coomassie and blots with anti-H3 and anti-H4

Substance: histone H3 (Xenopus laevis, recombinant full length) (from UniProt P84233 1-136) (natural protein)
- stoichiometry N: 2
